The chains are these.
B1: KRT18 (parent)
chain: KSQDLAKIMADIRAQYDELARKNR
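Note: lentivirally expressed fusions sorted by FACS into six bins by GFP to DsRed ratio, PSI derived from sequencing read proportions per bin multiplied by bin number.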

The data set covers variants of B1. Kind of data set: protein stability index of a GFP-peptide fusion (GPS, HEK-293T) (PSI 1-6); higher = more stable. As to conditions: c terminus: a fixed tail appended.
For the variant KSQDLAKIMSDIRAQYDELARKNR, the protein stability index turned out to be 2.84.
As for KSQDLAKIMVDIRAQYDELARKNR, the figure is 3.23; as for KSQDLAKIMPDIRAQYDELARKNR, 4.14.
The same measure for KSQDLAKIMRDIRAQYDELARKNR: 2.4.
With KSQDLAKIMTDIRAQYDELARKNR, the protein stability index was 3.02.
The same measure for KSQDLAKIMNDIRAQYDELARKNR: 3.09.
As for KSQDLAKIMYDIRAQYDELARKNR, the figure is 2.51.
With KSQDLAKIMQDIRAQYDELARKNR, the protein stability index amounted to 2.89.
The same measure for KSQDLAKIMWDIRAQYDELARKNR: 2.54.
As for KSQDLAKIMADIRTQYDELARKNR, the figure is 2.58; as for KSQDLAKIMADIRYQYDELARKNR, 3.27.
The same measure for KSQDLAKIMADIRPQYDELARKNR: 3.66; for KSQDLAKIMADIRSQYDELARKNR: 3.63.
In the case of KSQDLAKIMADIRCQYDELARKNR, the protein stability index was 3.05.
As for KSQDLAKIMADIRVQYDELARKNR, the figure is 2.68; as for KSQDLAKIMADIRKQYDELARKNR, 2.4.
The same measure for KSQDLAKIMADIRWQYDELARKNR: 1.97.
As for KSQDLAKIMADIRIQYDELARKNR, the figure is 3.21; as for KSQDLAKIMADIRGQYDELARKNR, 3.39.
Turning to KSQDLAKIMADIRLQYDELARKNR, the protein stability index was 2.73.
As for KSQDLAKIMADIRRQYDELARKNR, the figure is 2.71; as for KSQDLAKIMADIRFQYDELARKNR, 2.74.
As for KSQDLAKIMADIREQYDELARKNR, the figure is 2.89; as for KSQDLAKIMADIRQQYDELARKNR, 2.14.
As for KSQDLAKIMADIRNQYDELARKNR, the figure is 2.73.
For KSQDLAKIMADIRMQYDELARKNR, the protein stability index was found to be 2.67.
For the variant KSQDLAKIMADIRDQYDELARKNR, the protein stability index worked out at 2.8.
The same measure for KSQDLAKIMADIRHQYDELARKNR: 3.16; for KSQDLAKIMADIRALYDELARKNR: 1.9; for KSQDLAKIMADIRAVYDELARKNR: 2.06.
On to KSQDLAKIMADIRAAYDELARKNR, for which the protein stability index was determined as 2.06.
For KSQDLAKIMADIRAMYDELARKNR, the protein stability index stood at 2.14.
For KSQDLAKIMADIRAKYDELARKNR, the protein stability index came out at 2.4.
For KSQDLAKIMADIRANYDELARKNR, the protein stability index stood at 3.
The same measure for KSQDLAKIMADIRAIYDELARKNR: 1.96; for KSQDLAKIMADIRASYDELARKNR: 2.57.
On to KSQDLAKIMADIRATYDELARKNR, for which the protein stability index is 2.24.
The same measure for KSQDLAKIMADIRARYDELARKNR: 2.6; for KSQDLAKIMADIRAYYDELARKNR: 2.16; for KSQDLAKIMADIRAEYDELARKNR: 2.01.
KSQDLAKIMADIRAPYDELARKNR: the protein stability index is 3.84.
The same measure for KSQDLAKIMADIRAWYDELARKNR: 2.46; for KSQDLAKIMADIRACYDELARKNR: 2.37; for KSQDLAKIMADIRAHYDELARKNR: 1.97.
Turning to KSQDLAKIMADIRAFYDELARKNR, the protein stability index was determined as 2.34.
For the variant KSQDLAKIMADIRADYDELARKNR, the protein stability index is 3.49.
The same measure for KSQDLAKIMADIRAGYDELARKNR: 3.43.
The same measure for KSQDLAKIMADIMAQYDELARKNR: 1.83.
The same measure for KSQDLAKIMADIDAQYDELARKNR: 4.35.
Turning to KSQDLAKIMADINAQYDELARKNR, the protein stability index stood at 3.62.
As for KSQDLAKIMADIGAQYDELARKNR, the figure is 2.8; as for KSQDLAKIMADICAQYDELARKNR, 2.06; as for KSQDLAKIMADIVAQYDELARKNR, 2.42.
The same measure for KSQDLAKIMADIAAQYDELARKNR: 2.47.
The same measure for KSQDLAKIMADIKAQYDELARKNR: 2.92; for KSQDLAKIMADIEAQYDELARKNR: 3.75; for KSQDLAKIMADIFAQYDELARKNR: 1.93.
As for KSQDLAKIMADITAQYDELARKNR, the protein stability index stood at 2.78.
On to KSQDLAKIMADISAQYDELARKNR, for which the protein stability index was found to be 2.73.
On to KSQDLAKIMADILAQYDELARKNR, for which the protein stability index is 2.3.
In the case of KSQDLAKIMADIWAQYDELARKNR, the protein stability index is 2.79.
As for KSQDLAKIMADIQAQYDELARKNR, the figure is 2.85.
As for KSQDLAKIMADIPAQYDELARKNR, the figure is 4.12; as for KSQDLAKIMADIYAQYDELARKNR, 1.75; as for KSQDLAKIMADIIAQYDELARKNR, 1.92.
For the variant KSQDLAKIMADIHAQYDELARKNR, the protein stability index worked out at 2.53.
With KSQDLAKIMADIRAQYDTLARKNR, the protein stability index amounted to 2.35.
The same measure for KSQDLAKIMADIRAQYDVLARKNR: 2.31; for KSQDLAKIMADIRAQYDNLARKNR: 2.62.
As for KSQDLAKIMADIRAQYDYLARKNR, the figure is 3.24; as for KSQDLAKIMADIRAQYDGLARKNR, 2.66.
The same measure for KSQDLAKIMADIRAQYDSLARKNR: 2.72; for KSQDLAKIMADIRAQYDMLARKNR: 2.54.
Consider KSQDLAKIMADIRAQYDLLARKNR, for which the protein stability index was determined as 2.38.
For KSQDLAKIMADIRAQYDCLARKNR, the protein stability index was found to be 2.45.
As for KSQDLAKIMADIRAQYDRLARKNR, the figure is 2.39.
Consider KSQDLAKIMADIRAQYDFLARKNR, for which the protein stability index turned out to be 2.74.
As for KSQDLAKIMADIRAQYDWLARKNR, the protein stability index is 1.96.
With KSQDLAKIMADIRAQYDHLARKNR, the protein stability index came to 2.76.
With KSQDLAKIMADIRAQYDALARKNR, the protein stability index is 2.59.
As to KSQDLAKIMADIRAQYDPLARKNR, the protein stability index is 2.8.
In the case of KSQDLAKIMADIRAQYDILARKNR, the protein stability index came to 2.23.
As for KSQDLAKIMADIRAQYDKLARKNR, the figure is 1.99; as for KSQDLAKIMADIRAQYDDLARKNR, 2.16; as for KSQDLAKIMADIRAQYDQLARKNR, 2.68.
The same measure for KSQDLAKIMAFIRAQYDELARKNR: 1.8.
As for KSQDLAKIMATIRAQYDELARKNR, the figure is 2.02.
In the case of KSQDLAKIMAVIRAQYDELARKNR, the protein stability index is 2.14.
The same measure for KSQDLAKIMAIIRAQYDELARKNR: 1.88; for KSQDLAKIMASIRAQYDELARKNR: 2.21; for KSQDLAKIMAQIRAQYDELARKNR: 2.96.
The same measure for KSQDLAKIMAKIRAQYDELARKNR: 1.8; for KSQDLAKIMAEIRAQYDELARKNR: 2.14.
The same measure for KSQDLAKIMAHIRAQYDELARKNR: 2.71.

(Values after the supplement of paper PMC10567573.)
